Source: IntAct's records for PubMed 20890305

Target: MAP3K11 (UniProt Q16584)
Sequence (Q16584 whole entry, looked up): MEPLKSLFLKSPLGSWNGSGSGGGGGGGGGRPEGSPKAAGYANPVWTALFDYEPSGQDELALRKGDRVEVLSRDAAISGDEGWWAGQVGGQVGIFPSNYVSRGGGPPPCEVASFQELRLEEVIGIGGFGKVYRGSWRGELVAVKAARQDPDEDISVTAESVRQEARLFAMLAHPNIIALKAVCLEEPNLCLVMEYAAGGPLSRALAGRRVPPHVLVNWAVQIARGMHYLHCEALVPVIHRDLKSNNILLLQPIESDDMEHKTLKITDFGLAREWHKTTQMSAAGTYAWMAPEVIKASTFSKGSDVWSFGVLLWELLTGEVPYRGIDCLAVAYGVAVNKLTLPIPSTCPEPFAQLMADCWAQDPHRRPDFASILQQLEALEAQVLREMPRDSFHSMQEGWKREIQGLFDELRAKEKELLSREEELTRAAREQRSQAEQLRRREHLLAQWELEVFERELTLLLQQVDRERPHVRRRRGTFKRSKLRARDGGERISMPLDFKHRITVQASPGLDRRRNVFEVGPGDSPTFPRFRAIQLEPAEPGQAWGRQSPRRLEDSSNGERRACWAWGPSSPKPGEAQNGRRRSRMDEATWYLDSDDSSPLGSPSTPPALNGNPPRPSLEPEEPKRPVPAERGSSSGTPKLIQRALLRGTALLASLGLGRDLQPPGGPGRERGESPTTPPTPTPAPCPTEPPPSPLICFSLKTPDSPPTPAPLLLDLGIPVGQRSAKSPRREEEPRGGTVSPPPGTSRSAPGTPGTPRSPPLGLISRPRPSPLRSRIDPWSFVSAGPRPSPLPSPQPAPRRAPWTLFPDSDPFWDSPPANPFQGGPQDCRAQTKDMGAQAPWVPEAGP

Chain of Cell division control protein 42 homolog (Homo sapiens), P60953 T17N (P60953 whole entry T17N): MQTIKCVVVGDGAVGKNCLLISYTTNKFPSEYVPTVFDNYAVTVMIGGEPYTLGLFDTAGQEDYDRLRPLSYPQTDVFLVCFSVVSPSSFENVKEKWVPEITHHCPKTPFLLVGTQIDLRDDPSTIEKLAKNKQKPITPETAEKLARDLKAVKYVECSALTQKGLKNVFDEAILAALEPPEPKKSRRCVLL
Chain of Cell division control protein 42 homolog (Homo sapiens), P60953 G12V (P60953 whole entry G12V): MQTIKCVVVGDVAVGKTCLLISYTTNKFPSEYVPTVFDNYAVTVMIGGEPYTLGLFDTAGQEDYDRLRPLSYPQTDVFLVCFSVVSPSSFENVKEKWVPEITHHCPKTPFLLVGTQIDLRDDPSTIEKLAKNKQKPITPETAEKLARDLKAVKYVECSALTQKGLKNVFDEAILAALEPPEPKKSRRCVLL

Row | effect of a mutation on the interaction | Substance
1 | decreasing interaction | Cell division control protein 42 homolog (Homo sapiens), P60953 G12V
2 | disrupting interaction | Cell division control protein 42 homolog (Homo sapiens), P60953 T17N
